In patent publication EP3492597A2:

Molecular target: human hepatocyte growth factor receptor (hHGFR) (human) (UniProt P08581)
Experiment: cell-based or functional assay

UniProt P08581, sequence (P08581 25-1390): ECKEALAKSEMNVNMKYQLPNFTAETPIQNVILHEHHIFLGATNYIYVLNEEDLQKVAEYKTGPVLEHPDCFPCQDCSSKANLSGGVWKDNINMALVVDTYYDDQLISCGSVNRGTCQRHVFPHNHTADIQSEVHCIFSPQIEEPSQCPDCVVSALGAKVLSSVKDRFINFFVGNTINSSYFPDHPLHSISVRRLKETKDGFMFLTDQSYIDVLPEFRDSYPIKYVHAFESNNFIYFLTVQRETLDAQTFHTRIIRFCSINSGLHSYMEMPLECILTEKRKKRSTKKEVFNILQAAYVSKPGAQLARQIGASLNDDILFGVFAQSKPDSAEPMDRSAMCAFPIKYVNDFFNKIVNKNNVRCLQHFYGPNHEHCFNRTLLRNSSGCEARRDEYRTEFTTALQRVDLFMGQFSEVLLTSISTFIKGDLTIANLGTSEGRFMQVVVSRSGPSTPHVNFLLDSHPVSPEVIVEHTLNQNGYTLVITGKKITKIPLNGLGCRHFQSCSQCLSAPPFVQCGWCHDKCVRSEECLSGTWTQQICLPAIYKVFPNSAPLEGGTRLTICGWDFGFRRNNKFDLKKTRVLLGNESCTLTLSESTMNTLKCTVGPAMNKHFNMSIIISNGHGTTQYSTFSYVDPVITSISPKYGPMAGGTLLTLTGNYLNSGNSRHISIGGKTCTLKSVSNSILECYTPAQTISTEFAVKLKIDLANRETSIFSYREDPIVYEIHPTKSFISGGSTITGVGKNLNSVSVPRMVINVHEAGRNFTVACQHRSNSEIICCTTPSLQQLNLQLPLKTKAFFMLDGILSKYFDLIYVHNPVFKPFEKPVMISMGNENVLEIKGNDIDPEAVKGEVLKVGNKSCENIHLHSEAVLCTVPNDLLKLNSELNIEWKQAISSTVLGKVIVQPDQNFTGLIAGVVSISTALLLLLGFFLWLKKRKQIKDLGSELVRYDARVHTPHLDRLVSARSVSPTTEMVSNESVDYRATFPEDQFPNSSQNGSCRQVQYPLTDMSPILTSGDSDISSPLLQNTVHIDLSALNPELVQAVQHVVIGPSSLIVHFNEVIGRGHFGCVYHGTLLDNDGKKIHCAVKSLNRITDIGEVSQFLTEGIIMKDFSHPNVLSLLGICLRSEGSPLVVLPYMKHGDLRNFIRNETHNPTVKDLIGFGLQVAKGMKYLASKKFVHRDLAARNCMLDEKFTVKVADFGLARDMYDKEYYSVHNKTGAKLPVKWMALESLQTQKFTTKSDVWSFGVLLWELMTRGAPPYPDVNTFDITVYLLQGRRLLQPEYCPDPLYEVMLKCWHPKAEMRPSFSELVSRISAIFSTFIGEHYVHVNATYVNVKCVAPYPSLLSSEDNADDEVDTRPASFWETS

Substance “S663V+T492V mutant AAV3 capsid (rAAV3-S663V+T492V vector)” has a transduction of T47D+hHGFR cells against parental T47D cells of over 5 fold.

For “Y705+731F double-mutant AAV3 capsid (Y705+731F scAAV3-CBAp-EGFP vector)”, the transduction of T47D+hHGFR cells against parental T47D cells was over 5 fold.

In the case of “wild-type AAV3 capsid (scAAV3-CBAp-EGFP vector)”, the transduction efficiency (EGFP expression, 72 hr) in T47D+hHGFR cells against T47D cells is reported as 8 to 13 fold and the transduction of T47D+hHGFR cells against parental T47D cells is reported as over 5 fold.
